Data on two substances can be found in IntAct's records for PubMed 19513100.

For assay [1], the target named is rb_mouse Rb1 (UniProt P13405).
The target of assay [2] is fog1_human ZFPM1 (UniProt Q8IX07).
fog1_human ZFPM1, sequence (Q8IX07 whole entry): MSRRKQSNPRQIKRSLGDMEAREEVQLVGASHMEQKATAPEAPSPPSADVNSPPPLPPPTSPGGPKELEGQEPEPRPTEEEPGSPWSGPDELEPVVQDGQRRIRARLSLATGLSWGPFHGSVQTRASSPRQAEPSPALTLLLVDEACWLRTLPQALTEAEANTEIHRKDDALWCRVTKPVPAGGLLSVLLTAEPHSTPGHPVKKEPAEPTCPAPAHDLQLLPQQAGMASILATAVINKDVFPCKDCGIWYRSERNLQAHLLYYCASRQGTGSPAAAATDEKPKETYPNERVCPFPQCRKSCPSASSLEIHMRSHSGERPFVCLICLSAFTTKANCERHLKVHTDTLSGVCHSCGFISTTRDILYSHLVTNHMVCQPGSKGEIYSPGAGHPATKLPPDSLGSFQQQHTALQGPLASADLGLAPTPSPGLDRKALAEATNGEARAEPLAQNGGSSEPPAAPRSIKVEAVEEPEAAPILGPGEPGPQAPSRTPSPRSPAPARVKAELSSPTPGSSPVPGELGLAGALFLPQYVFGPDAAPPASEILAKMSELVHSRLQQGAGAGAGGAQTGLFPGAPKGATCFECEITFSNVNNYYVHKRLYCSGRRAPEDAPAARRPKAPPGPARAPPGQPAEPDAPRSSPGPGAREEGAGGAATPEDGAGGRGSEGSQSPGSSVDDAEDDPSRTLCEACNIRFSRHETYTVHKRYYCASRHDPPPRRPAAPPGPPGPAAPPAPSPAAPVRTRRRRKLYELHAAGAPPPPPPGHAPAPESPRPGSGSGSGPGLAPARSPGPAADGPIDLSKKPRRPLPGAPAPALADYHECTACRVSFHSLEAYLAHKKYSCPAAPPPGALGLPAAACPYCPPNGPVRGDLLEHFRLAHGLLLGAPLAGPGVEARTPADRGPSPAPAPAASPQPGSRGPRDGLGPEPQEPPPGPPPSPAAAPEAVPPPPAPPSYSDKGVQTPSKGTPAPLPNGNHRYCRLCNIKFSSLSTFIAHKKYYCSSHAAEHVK

rb_mouse Rb1, sequence (P13405 whole entry): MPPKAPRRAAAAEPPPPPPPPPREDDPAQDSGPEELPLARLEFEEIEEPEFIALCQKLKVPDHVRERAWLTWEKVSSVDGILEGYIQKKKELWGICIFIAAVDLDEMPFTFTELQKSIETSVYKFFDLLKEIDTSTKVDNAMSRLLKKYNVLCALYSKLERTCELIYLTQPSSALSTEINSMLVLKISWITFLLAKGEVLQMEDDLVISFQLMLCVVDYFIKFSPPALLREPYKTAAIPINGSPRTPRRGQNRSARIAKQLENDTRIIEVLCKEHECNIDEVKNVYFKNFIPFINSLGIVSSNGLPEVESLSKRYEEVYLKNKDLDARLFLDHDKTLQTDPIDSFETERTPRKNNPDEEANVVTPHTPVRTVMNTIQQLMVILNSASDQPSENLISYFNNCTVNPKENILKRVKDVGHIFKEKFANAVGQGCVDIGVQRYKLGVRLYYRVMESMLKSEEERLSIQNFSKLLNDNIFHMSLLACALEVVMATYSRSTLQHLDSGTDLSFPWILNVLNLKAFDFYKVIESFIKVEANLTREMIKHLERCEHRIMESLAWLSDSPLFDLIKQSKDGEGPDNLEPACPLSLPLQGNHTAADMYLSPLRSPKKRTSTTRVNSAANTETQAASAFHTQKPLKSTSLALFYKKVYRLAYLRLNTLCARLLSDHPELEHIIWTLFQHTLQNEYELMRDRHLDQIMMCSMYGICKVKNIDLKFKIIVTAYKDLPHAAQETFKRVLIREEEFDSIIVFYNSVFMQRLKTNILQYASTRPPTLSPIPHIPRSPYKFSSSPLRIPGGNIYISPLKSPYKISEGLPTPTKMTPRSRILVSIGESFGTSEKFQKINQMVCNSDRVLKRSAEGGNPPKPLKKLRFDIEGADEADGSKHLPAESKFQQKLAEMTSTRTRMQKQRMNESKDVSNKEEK
Erythroid transcription factor (Homo sapiens), P15976 C83G;E85K, sequence (P15976 whole entry C83G/E85K): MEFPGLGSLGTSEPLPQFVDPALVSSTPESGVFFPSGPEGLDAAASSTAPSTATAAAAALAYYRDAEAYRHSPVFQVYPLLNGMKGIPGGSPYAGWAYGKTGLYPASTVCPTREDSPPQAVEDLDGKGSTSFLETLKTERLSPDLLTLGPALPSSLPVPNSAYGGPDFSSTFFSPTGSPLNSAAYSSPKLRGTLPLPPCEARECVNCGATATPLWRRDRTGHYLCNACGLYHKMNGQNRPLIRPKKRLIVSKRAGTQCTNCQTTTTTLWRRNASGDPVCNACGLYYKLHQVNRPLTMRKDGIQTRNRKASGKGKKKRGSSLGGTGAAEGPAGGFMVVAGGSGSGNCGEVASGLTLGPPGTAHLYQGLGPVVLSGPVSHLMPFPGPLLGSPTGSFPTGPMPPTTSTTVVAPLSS
Erythroid transcription factor (Homo sapiens), P15976 V205G, sequence (P15976 whole entry V205G): as the sequence (P15976 whole entry C83G/E85K) above, with G83C, K85E, V205G counted along it

“Erythroid transcription factor (Homo sapiens), P15976 C83G;E85K”: the “effect of a mutation on the interaction” value in assay [1] was “disrupting interaction”.
On to “Erythroid transcription factor (Homo sapiens), P15976 V205G”, for which the “effect of a mutation on the interaction” value in assay [2] is reported as “disrupting interaction”.
